Assay results as given in patent US20060063208A1.

Target: BMP-2 (human) (UniProt P12643)
Assay: cell-based or functional assay

Chain of BMP-2 (human) (P12643 283-396 limits assumed): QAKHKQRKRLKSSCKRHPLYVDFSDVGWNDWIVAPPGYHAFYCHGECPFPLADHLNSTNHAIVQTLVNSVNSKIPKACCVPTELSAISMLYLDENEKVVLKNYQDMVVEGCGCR

“DRAGON (DRG11-Responsive Axonal Guidance and Outgrowth of Neurite), recombinant, expressed in transfected cells (from UniProt Q7TQ33 49-415) (receptor)” gave a BMP-dependent signaling, Msx2-Luc reporter in 10T1/2 and HepG2 cells of 8 fold and a luciferase activity of the BRE-luc reporter in LLC-PK1 cells of 14 fold.
